From US20220204580A1 (AstraZeneca / MedImmune, published 2022)
Numbered stars: 1 amine (or outer) side, 2 acyl side, 3 side chain; on linkers, the order of the positions; unused ones are H or OH. Bridge positions count the residues as written; N and C are the ends. Square brackets hold non-standard residues; d marks the D form. Side chains are listed from the residue outwards. Ends that are not written are not given here. * marks the point of attachment. C18 diacid = O=C(O)CCCCCCCCCCCCCCCCC(=O)*; γGlu = O=C(O)[C@H](CCC(=O)[*:2])N[*:1]; Aib = CC(C)(N)C(=O)O

B1: Peptide 46 (SEQ ID NO: 46) (peptide)
peptide: K([γGlu-C18 diacid])KCNTATCATQRLAHFLVHSS[Aib]NFGPILPPTNVGSNTY-NH2
modifications: disulfide 3-8; N-terminus assumed
SMILES: CC[C@H](C)[C@H](NC(=O)[C@@H]1CCCN1C(=O)CNC(=O)[C@H](Cc1ccccc1)NC(=O)[C@H](CC(N)=O)NC(=O)C(C)(C)NC(=O)[C@H](CO)NC(=O)[C@H](CO)NC(=O)[C@H](Cc1c[nH]cn1)NC(=O)[C@@H](NC(=O)[C@H](CC(C)C)NC(=O)[C@H](Cc1ccccc1)NC(=O)[C@H](Cc1c[nH]cn1)NC(=O)[C@H](C)NC(=O)[C@H](CC(C)C)NC(=O)[C@H](CCCNC(=N)N)NC(=O)[C@H](CCC(N)=O)NC(=O)[C@@H](NC(=O)[C@H](C)NC(=O)[C@@H]1CSSC[C@H](NC(=O)[C@H](CCCCN)NC(=O)[C@@H](N)CCCCNC(=O)CC[C@H](NC(=O)CCCCCCCCCCCCCCCCC(=O)O)C(=O)O)C(=O)N[C@@H](CC(N)=O)C(=O)N[C@@H]([C@@H](C)O)C(=O)N[C@@H](C)C(=O)N[C@@H]([C@@H](C)O)C(=O)N1)[C@@H](C)O)C(C)C)C(=O)N[C@@H](CC(C)C)C(=O)N1CCC[C@H]1C(=O)N1CCC[C@H]1C(=O)N[C@H](C(=O)N[C@@H](CC(N)=O)C(=O)N[C@H](C(=O)NCC(=O)N[C@@H](CO)C(=O)N[C@@H](CC(N)=O)C(=O)N[C@H](C(=O)N[C@@H](Cc1ccc(O)cc1)C(N)=O)[C@@H](C)O)C(C)C)[C@@H](C)O
B2: Peptide 47 (SEQ ID NO: 47) (peptide)
peptide: K([γGlu-C18 diacid])KCNTATCATQRLAHFLVHSS[Aib]NFGPILPPTNVGSETY-NH2
modifications: disulfide 3-8; N-terminus assumed
SMILES: CC[C@H](C)[C@H](NC(=O)[C@@H]1CCCN1C(=O)CNC(=O)[C@H](Cc1ccccc1)NC(=O)[C@H](CC(N)=O)NC(=O)C(C)(C)NC(=O)[C@H](CO)NC(=O)[C@H](CO)NC(=O)[C@H](Cc1c[nH]cn1)NC(=O)[C@@H](NC(=O)[C@H](CC(C)C)NC(=O)[C@H](Cc1ccccc1)NC(=O)[C@H](Cc1c[nH]cn1)NC(=O)[C@H](C)NC(=O)[C@H](CC(C)C)NC(=O)[C@H](CCCNC(=N)N)NC(=O)[C@H](CCC(N)=O)NC(=O)[C@@H](NC(=O)[C@H](C)NC(=O)[C@@H]1CSSC[C@H](NC(=O)[C@H](CCCCN)NC(=O)[C@@H](N)CCCCNC(=O)CC[C@H](NC(=O)CCCCCCCCCCCCCCCCC(=O)O)C(=O)O)C(=O)N[C@@H](CC(N)=O)C(=O)N[C@@H]([C@@H](C)O)C(=O)N[C@@H](C)C(=O)N[C@@H]([C@@H](C)O)C(=O)N1)[C@@H](C)O)C(C)C)C(=O)N[C@@H](CC(C)C)C(=O)N1CCC[C@H]1C(=O)N1CCC[C@H]1C(=O)N[C@H](C(=O)N[C@@H](CC(N)=O)C(=O)N[C@H](C(=O)NCC(=O)N[C@@H](CO)C(=O)N[C@@H](CCC(=O)O)C(=O)N[C@H](C(=O)N[C@@H](Cc1ccc(O)cc1)C(N)=O)[C@@H](C)O)C(C)C)[C@@H](C)O
B3: Peptide 49 (SEQ ID NO: 49) (peptide)
peptide: K([γGlu-γGlu-C18 diacid])CNTATCATQRLANFLVHSS[Aib]NFGPILPPTEVGSNTY-NH2
modifications: disulfide 2-7; N-terminus assumed
SMILES: CC[C@H](C)[C@H](NC(=O)[C@@H]1CCCN1C(=O)CNC(=O)[C@H](Cc1ccccc1)NC(=O)[C@H](CC(N)=O)NC(=O)C(C)(C)NC(=O)[C@H](CO)NC(=O)[C@H](CO)NC(=O)[C@H](Cc1c[nH]cn1)NC(=O)[C@@H](NC(=O)[C@H](CC(C)C)NC(=O)[C@H](Cc1ccccc1)NC(=O)[C@H](CC(N)=O)NC(=O)[C@H](C)NC(=O)[C@H](CC(C)C)NC(=O)[C@H](CCCNC(=N)N)NC(=O)[C@H](CCC(N)=O)NC(=O)[C@@H](NC(=O)[C@H](C)NC(=O)[C@@H]1CSSC[C@H](NC(=O)[C@@H](N)CCCCNC(=O)CC[C@H](NC(=O)CC[C@H](NC(=O)CCCCCCCCCCCCCCCCC(=O)O)C(=O)O)C(=O)O)C(=O)N[C@@H](CC(N)=O)C(=O)N[C@@H]([C@@H](C)O)C(=O)N[C@@H](C)C(=O)N[C@@H]([C@@H](C)O)C(=O)N1)[C@@H](C)O)C(C)C)C(=O)N[C@@H](CC(C)C)C(=O)N1CCC[C@H]1C(=O)N1CCC[C@H]1C(=O)N[C@H](C(=O)N[C@@H](CCC(=O)O)C(=O)N[C@H](C(=O)NCC(=O)N[C@@H](CO)C(=O)N[C@@H](CC(N)=O)C(=O)N[C@H](C(=O)N[C@@H](Cc1ccc(O)cc1)C(N)=O)[C@@H](C)O)C(C)C)[C@@H](C)O
B4: Peptide 51 (SEQ ID NO: 51) (peptide)
peptide: K([γGlu-C18 diacid])KCNTATCATQRLANFLSHSS[Aib]NFGPILPPTHVGSNTY-NH2
modifications: disulfide 3-8; N-terminus assumed
SMILES: CC[C@H](C)[C@H](NC(=O)[C@@H]1CCCN1C(=O)CNC(=O)[C@H](Cc1ccccc1)NC(=O)[C@H](CC(N)=O)NC(=O)C(C)(C)NC(=O)[C@H](CO)NC(=O)[C@H](CO)NC(=O)[C@H](Cc1c[nH]cn1)NC(=O)[C@H](CO)NC(=O)[C@H](CC(C)C)NC(=O)[C@H](Cc1ccccc1)NC(=O)[C@H](CC(N)=O)NC(=O)[C@H](C)NC(=O)[C@H](CC(C)C)NC(=O)[C@H](CCCNC(=N)N)NC(=O)[C@H](CCC(N)=O)NC(=O)[C@@H](NC(=O)[C@H](C)NC(=O)[C@@H]1CSSC[C@H](NC(=O)[C@H](CCCCN)NC(=O)[C@@H](N)CCCCNC(=O)CC[C@H](NC(=O)CCCCCCCCCCCCCCCCC(=O)O)C(=O)O)C(=O)N[C@@H](CC(N)=O)C(=O)N[C@@H]([C@@H](C)O)C(=O)N[C@@H](C)C(=O)N[C@@H]([C@@H](C)O)C(=O)N1)[C@@H](C)O)C(=O)N[C@@H](CC(C)C)C(=O)N1CCC[C@H]1C(=O)N1CCC[C@H]1C(=O)N[C@H](C(=O)N[C@@H](Cc1c[nH]cn1)C(=O)N[C@H](C(=O)NCC(=O)N[C@@H](CO)C(=O)N[C@@H](CC(N)=O)C(=O)N[C@H](C(=O)N[C@@H](Cc1ccc(O)cc1)C(N)=O)[C@@H](C)O)C(C)C)[C@@H](C)O
B5: Peptide 52 (SEQ ID NO: 52) (peptide)
peptide: K([γGlu-C18 diacid])KCNTATCATQRLANFLSHSS[Aib]NFGPILPPTRVGSNTY-NH2
modifications: disulfide 3-8; N-terminus assumed
SMILES: CC[C@H](C)[C@H](NC(=O)[C@@H]1CCCN1C(=O)CNC(=O)[C@H](Cc1ccccc1)NC(=O)[C@H](CC(N)=O)NC(=O)C(C)(C)NC(=O)[C@H](CO)NC(=O)[C@H](CO)NC(=O)[C@H](Cc1c[nH]cn1)NC(=O)[C@H](CO)NC(=O)[C@H](CC(C)C)NC(=O)[C@H](Cc1ccccc1)NC(=O)[C@H](CC(N)=O)NC(=O)[C@H](C)NC(=O)[C@H](CC(C)C)NC(=O)[C@H](CCCNC(=N)N)NC(=O)[C@H](CCC(N)=O)NC(=O)[C@@H](NC(=O)[C@H](C)NC(=O)[C@@H]1CSSC[C@H](NC(=O)[C@H](CCCCN)NC(=O)[C@@H](N)CCCCNC(=O)CC[C@H](NC(=O)CCCCCCCCCCCCCCCCC(=O)O)C(=O)O)C(=O)N[C@@H](CC(N)=O)C(=O)N[C@@H]([C@@H](C)O)C(=O)N[C@@H](C)C(=O)N[C@@H]([C@@H](C)O)C(=O)N1)[C@@H](C)O)C(=O)N[C@@H](CC(C)C)C(=O)N1CCC[C@H]1C(=O)N1CCC[C@H]1C(=O)N[C@H](C(=O)N[C@@H](CCCNC(=N)N)C(=O)N[C@H](C(=O)NCC(=O)N[C@@H](CO)C(=O)N[C@@H](CC(N)=O)C(=O)N[C@H](C(=O)N[C@@H](Cc1ccc(O)cc1)C(N)=O)[C@@H](C)O)C(C)C)[C@@H](C)O
B6: Peptide 50 (SEQ ID NO: 50) (peptide)
peptide: K([γGlu-γGlu-C18 diacid])CNTATCATQRLANFLRHSS[Aib]NFGPILPPTEVGSNTY-NH2
modifications: disulfide 2-7; N-terminus assumed
SMILES: CC[C@H](C)[C@H](NC(=O)[C@@H]1CCCN1C(=O)CNC(=O)[C@H](Cc1ccccc1)NC(=O)[C@H](CC(N)=O)NC(=O)C(C)(C)NC(=O)[C@H](CO)NC(=O)[C@H](CO)NC(=O)[C@H](Cc1c[nH]cn1)NC(=O)[C@H](CCCNC(=N)N)NC(=O)[C@H](CC(C)C)NC(=O)[C@H](Cc1ccccc1)NC(=O)[C@H](CC(N)=O)NC(=O)[C@H](C)NC(=O)[C@H](CC(C)C)NC(=O)[C@H](CCCNC(=N)N)NC(=O)[C@H](CCC(N)=O)NC(=O)[C@@H](NC(=O)[C@H](C)NC(=O)[C@@H]1CSSC[C@H](NC(=O)[C@@H](N)CCCCNC(=O)CC[C@H](NC(=O)CC[C@H](NC(=O)CCCCCCCCCCCCCCCCC(=O)O)C(=O)O)C(=O)O)C(=O)N[C@@H](CC(N)=O)C(=O)N[C@@H]([C@@H](C)O)C(=O)N[C@@H](C)C(=O)N[C@@H]([C@@H](C)O)C(=O)N1)[C@@H](C)O)C(=O)N[C@@H](CC(C)C)C(=O)N1CCC[C@H]1C(=O)N1CCC[C@H]1C(=O)N[C@H](C(=O)N[C@@H](CCC(=O)O)C(=O)N[C@H](C(=O)NCC(=O)N[C@@H](CO)C(=O)N[C@@H](CC(N)=O)C(=O)N[C@H](C(=O)N[C@@H](Cc1ccc(O)cc1)C(N)=O)[C@@H](C)O)C(C)C)[C@@H](C)O

What was measured:
[1] = biological target: T1, human amylin receptor (calcitonin receptor co-expressed with receptor activity modifying protein, RAMP3) (human, UniProt P30988 25-474; O60896 24-148); test: cell-based or functional assay
T1 sequence (looked up) 1: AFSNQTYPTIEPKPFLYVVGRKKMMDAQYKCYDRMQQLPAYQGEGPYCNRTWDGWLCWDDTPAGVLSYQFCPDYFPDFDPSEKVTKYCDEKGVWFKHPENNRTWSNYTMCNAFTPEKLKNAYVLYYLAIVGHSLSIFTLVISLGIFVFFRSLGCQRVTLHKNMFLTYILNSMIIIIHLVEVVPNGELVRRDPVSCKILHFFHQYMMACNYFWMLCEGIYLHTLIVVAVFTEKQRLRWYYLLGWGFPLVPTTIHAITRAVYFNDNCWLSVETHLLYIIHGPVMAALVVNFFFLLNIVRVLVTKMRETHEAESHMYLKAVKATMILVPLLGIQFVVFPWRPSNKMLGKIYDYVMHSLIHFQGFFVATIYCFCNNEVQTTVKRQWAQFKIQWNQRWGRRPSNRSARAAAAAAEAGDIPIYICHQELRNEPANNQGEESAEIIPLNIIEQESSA
T1 sequence (looked up) 2: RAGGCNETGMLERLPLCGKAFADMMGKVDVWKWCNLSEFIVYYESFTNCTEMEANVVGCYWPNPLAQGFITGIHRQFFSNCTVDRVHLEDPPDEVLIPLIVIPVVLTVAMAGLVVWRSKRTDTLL

[2] = biological target: T2, human calcitonin receptor (human, UniProt P30988 25-474); test: cell-based or functional assay
T2 sequence (looked up): T1 sequence (looked up) 1

Binder	EC50 (cAMP production) [1]	Ratio (EC50 hCTR / EC50 hAMYR3) [1]	EC50 (cAMP production) [2]
B1	109 pM	3	362 pM
B2	218 pM	2	468 pM
B3	334 pM	12	4140 pM
B4	126 pM	13	1640 pM
B5	89 pM	12	1100 pM
B6	349 pM	54	18900 pM
